In the supplement of paper PMC10065799, “High-throughput profiling of sequence recognition by tyrosine kinases and SH2 domains using bacterial peptide display” (eLife, 2023):

Experiments:
Grb2 SH2 = Grb2 SH2 (UniProt P62993); assay: SH2 binding enrichment of the phosphorylated peptide, bacterial display (enrichment ratio); higher = better substrate or ligand; peptides without Tyr show the background
c-Src SH2 = assay: as above
SHP2-C SH2 = assay: as above
FGFR3 = FGFR3 (UniProt P22607); assay: phosphorylation enrichment, bacterial display (enrichment ratio); higher = better substrate or ligand; peptides without Tyr show the background
Chain of FGFR3 (P22607 whole entry, looked up): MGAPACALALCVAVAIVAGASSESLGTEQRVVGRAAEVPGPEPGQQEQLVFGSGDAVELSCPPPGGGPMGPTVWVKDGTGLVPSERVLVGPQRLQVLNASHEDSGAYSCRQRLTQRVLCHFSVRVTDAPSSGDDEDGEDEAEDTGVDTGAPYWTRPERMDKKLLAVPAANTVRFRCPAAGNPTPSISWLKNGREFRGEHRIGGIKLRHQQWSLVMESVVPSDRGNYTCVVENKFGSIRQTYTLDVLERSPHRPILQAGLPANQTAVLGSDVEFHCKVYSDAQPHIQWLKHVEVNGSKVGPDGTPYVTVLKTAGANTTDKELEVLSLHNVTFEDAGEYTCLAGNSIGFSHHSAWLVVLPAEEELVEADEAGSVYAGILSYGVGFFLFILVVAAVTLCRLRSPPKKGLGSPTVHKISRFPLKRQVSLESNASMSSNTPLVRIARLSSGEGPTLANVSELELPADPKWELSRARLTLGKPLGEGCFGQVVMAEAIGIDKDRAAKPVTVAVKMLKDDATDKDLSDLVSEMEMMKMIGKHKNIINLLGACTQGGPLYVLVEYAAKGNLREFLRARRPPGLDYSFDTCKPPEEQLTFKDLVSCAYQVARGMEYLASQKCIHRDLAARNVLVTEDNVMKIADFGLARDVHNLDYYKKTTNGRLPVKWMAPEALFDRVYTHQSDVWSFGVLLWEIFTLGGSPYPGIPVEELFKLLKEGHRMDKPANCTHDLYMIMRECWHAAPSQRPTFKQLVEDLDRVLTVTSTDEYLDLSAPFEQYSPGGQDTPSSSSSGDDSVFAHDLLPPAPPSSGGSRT

Fer (mouse) = assay: as above
c-Src = assay: as above
Jak2 = Jak2 (UniProt O60674); assay: as above
Chain of Jak2 (O60674 whole entry, looked up): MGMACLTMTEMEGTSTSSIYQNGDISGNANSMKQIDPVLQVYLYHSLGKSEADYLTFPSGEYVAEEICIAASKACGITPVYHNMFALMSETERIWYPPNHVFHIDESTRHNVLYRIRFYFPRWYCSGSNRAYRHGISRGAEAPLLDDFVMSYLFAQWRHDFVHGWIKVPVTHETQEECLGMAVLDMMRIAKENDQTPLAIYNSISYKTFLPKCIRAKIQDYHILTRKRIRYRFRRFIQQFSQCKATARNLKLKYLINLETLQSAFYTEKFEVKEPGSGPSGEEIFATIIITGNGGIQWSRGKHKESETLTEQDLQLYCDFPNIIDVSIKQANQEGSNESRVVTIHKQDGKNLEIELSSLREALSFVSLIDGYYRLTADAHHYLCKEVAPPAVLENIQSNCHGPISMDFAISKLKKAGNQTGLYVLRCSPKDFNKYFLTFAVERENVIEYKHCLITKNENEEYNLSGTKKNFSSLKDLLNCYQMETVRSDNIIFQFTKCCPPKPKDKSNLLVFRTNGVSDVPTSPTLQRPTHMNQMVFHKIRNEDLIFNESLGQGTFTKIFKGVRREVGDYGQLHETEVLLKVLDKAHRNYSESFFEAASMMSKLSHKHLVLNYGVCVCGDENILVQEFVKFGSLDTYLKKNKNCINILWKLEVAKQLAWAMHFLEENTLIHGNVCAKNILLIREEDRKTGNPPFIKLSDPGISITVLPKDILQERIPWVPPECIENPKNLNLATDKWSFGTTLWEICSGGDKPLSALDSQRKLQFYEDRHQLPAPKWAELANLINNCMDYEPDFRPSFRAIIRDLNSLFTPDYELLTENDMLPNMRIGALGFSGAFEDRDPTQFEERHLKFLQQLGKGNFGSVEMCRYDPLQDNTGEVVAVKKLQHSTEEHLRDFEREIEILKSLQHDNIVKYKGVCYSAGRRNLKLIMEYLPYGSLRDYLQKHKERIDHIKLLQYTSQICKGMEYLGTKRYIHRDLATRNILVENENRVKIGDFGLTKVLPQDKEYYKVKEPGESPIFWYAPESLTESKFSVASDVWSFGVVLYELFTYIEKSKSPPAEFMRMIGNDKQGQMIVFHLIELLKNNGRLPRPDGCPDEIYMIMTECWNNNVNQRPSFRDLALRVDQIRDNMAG

Fyn = Fyn (UniProt P06241); assay: as above
AncSZ = assay: as above
Fes = Fes (UniProt P07332); assay: as above
EPHB2 = EPHB2 (UniProt P29323); assay: as above
Hck = Hck (UniProt P08631); assay: as above
EPHB1 = EPHB1 (UniProt P54762); assay: as above
Chain of EPHB1 (P54762 whole entry, looked up): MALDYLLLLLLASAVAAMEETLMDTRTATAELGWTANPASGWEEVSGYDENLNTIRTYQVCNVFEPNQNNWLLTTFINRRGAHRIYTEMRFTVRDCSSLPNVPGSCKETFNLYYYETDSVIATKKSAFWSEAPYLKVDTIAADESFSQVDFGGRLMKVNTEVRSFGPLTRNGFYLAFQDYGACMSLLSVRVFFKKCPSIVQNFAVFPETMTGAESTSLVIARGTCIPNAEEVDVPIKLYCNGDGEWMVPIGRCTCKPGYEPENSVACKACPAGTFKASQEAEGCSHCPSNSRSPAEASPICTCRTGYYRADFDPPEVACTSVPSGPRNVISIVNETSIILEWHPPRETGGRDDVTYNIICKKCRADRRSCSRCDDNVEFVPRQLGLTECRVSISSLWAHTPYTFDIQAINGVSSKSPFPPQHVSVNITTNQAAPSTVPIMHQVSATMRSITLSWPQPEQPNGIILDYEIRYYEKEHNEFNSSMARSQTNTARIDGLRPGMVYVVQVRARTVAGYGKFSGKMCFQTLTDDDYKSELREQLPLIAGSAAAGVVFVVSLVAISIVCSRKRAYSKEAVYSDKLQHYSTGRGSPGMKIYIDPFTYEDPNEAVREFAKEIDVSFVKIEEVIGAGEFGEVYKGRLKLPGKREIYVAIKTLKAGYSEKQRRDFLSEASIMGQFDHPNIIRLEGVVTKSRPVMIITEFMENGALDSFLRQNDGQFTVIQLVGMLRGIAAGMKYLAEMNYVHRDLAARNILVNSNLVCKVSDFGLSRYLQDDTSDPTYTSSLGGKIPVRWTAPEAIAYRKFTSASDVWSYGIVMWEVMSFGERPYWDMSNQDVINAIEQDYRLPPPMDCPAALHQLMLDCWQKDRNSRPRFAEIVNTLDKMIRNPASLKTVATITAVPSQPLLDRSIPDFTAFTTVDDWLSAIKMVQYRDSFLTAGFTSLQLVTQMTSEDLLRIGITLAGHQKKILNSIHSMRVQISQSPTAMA

c-Abl (mouse) = assay: as above
FGFR1 = FGFR1 (UniProt P11362); assay: as above
Chain of FGFR1 (P11362 whole entry, looked up): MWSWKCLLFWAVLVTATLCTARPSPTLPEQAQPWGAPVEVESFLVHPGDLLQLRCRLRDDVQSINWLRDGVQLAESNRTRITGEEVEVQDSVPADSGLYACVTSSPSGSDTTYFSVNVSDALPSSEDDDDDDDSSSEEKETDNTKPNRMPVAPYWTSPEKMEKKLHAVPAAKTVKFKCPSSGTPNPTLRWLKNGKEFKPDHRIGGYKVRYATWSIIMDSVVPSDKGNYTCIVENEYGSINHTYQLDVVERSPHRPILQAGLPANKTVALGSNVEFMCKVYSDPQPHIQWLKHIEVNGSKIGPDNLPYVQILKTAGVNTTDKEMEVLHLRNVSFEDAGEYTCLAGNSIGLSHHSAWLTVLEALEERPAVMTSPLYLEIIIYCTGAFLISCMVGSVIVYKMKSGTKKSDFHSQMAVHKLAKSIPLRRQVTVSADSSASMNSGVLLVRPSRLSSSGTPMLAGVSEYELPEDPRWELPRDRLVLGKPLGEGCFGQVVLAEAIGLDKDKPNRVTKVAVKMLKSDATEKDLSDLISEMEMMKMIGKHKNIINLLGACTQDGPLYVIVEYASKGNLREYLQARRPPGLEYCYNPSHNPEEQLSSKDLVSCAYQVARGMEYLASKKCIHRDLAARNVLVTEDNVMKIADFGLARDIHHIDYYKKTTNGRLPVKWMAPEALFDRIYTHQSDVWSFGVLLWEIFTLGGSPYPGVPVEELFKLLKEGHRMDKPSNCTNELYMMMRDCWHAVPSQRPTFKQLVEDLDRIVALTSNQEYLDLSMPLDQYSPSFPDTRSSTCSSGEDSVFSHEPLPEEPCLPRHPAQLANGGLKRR

MERTK = MERTK (UniProt Q12866); assay: as above
Chain of MERTK (Q12866 whole entry, looked up, the tested form may be a part): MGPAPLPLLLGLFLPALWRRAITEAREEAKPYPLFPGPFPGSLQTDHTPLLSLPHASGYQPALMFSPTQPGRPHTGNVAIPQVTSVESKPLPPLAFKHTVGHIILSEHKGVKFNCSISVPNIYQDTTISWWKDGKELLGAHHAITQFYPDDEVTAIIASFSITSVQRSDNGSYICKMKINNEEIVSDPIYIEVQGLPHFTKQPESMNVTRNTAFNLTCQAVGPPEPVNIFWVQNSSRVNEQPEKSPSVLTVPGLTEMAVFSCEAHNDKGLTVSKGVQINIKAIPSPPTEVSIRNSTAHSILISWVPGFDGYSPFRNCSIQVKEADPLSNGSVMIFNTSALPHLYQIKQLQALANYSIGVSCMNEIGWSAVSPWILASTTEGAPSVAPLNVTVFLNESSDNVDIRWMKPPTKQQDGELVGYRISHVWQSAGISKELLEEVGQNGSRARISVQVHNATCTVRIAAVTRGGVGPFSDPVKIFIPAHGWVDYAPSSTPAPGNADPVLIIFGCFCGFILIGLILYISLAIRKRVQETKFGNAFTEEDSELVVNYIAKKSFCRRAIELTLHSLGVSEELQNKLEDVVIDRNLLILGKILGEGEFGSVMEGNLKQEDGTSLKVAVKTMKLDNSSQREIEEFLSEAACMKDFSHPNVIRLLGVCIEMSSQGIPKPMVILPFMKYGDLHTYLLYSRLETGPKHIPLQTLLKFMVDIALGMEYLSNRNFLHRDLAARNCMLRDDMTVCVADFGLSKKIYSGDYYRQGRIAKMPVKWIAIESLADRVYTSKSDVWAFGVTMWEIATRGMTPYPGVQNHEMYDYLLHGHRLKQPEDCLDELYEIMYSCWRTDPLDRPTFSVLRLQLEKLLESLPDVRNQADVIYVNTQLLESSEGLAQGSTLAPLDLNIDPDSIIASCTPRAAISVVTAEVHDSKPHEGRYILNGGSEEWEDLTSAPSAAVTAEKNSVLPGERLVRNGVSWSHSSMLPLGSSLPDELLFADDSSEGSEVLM
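Wherever SH2 binding enrichment of the phosphorylated peptide, bacterial display is given: peptide library displayed on the E. coli surface as eCPX fusions, selected cells deep-sequenced, score is each peptide's frequency after selection divided by its frequency in the input.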
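Wherever phosphorylation enrichment, bacterial display is given: 11-residue human phosphosite peptides and single-mutation variants displayed on the E. coli surface, counted by deep sequencing, each peptide's frequency after selection divided by its frequency in the unselected input library; frequency after pTyr selection over input frequency; kinase dosed for 20-30% of maximal phosphorylation in three min.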

Chain of Grb2 SH2 (P62993 whole entry, looked up): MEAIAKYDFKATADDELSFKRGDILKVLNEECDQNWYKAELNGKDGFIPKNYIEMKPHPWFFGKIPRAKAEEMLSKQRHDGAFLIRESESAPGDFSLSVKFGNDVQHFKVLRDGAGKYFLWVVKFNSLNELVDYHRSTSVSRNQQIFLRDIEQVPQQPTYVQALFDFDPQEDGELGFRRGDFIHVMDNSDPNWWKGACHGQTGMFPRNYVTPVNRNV

Work on PIYLYYLMDLS [ITGB2_Y131_D128Y] yielded an SH2 binding enrichment (Grb2 SH2) of 0.902, an SH2 binding enrichment (c-Src SH2) of 0.751 and an SH2 binding enrichment (SHP2-C SH2) of 0.842. The phosphorylation enrichment (FGFR3) was 13.9, the phosphorylation enrichment (Fer (mouse)) was 4.54 and the phosphorylation enrichment (c-Src) was 6.42. It also gave a phosphorylation enrichment (Jak2) of 8.11, a phosphorylation enrichment (Fyn) of 5.41 and a phosphorylation enrichment (AncSZ) of 4.09. It also gave a phosphorylation enrichment (Fes) of 3.42, a phosphorylation enrichment (EPHB2) of 6.17 and a phosphorylation enrichment (Hck) of 4.44. It also gave a phosphorylation enrichment (EPHB1) of 7.52, a phosphorylation enrichment (c-Abl (mouse)) of 3.32 and a phosphorylation enrichment (FGFR1) of 13.6. The phosphorylation enrichment (MERTK) was 11.1.
In the case of PKGTGYIKTEL [STAT1_Y701], the SH2 binding enrichment (Grb2 SH2) is reported as 0.93, the SH2 binding enrichment (c-Src SH2) is reported as 0.446 and the SH2 binding enrichment (SHP2-C SH2) is reported as 0.893. It also gave a phosphorylation enrichment (FGFR3) of 1.01, a phosphorylation enrichment (Fer (mouse)) of 0.801 and a phosphorylation enrichment (c-Src) of 0.635. The phosphorylation enrichment (Jak2) was 0.986, the phosphorylation enrichment (Fyn) was 0.512 and the phosphorylation enrichment (AncSZ) was 0.973. The phosphorylation enrichment (Fes) was 0.835, the phosphorylation enrichment (EPHB2) was 0.557 and the phosphorylation enrichment (Hck) was 0.748. It also gave a phosphorylation enrichment (EPHB1) of 0.411, a phosphorylation enrichment (c-Abl (mouse)) of 0.559 and a phosphorylation enrichment (FGFR1) of 0.792. For the same sequence, the phosphorylation enrichment (MERTK) was 0.694.
PLGPLYASSNT [INSR_Y992_P997T] gave an SH2 binding enrichment (Grb2 SH2) of 0.914, an SH2 binding enrichment (c-Src SH2) of 0.526 and an SH2 binding enrichment (SHP2-C SH2) of 1.1. For the same sequence, the phosphorylation enrichment (FGFR3) was 0.73, the phosphorylation enrichment (Fer (mouse)) was 1.1 and the phosphorylation enrichment (c-Src) was 1.22. It also gave a phosphorylation enrichment (Jak2) of 0.723, a phosphorylation enrichment (Fyn) of 0.908 and a phosphorylation enrichment (AncSZ) of 1.87. It also gave a phosphorylation enrichment (Fes) of 0.949, a phosphorylation enrichment (EPHB2) of 0.783 and a phosphorylation enrichment (Hck) of 3.67. For the same sequence, the phosphorylation enrichment (EPHB1) was 0.896, the phosphorylation enrichment (c-Abl (mouse)) was 1.51 and the phosphorylation enrichment (FGFR1) was 0.633. The phosphorylation enrichment (MERTK) was 1.12.
Sequence PLGVLYKVKVY [PTS_Y128_V124L] has an SH2 binding enrichment (Grb2 SH2) of 0.828, an SH2 binding enrichment (c-Src SH2) of 0.484 and an SH2 binding enrichment (SHP2-C SH2) of 0.817. It also gave a phosphorylation enrichment (FGFR3) of 0.82, a phosphorylation enrichment (Fer (mouse)) of 0.511 and a phosphorylation enrichment (c-Src) of 0.36. The phosphorylation enrichment (Jak2) was 1.19, the phosphorylation enrichment (Fyn) was 0.339 and the phosphorylation enrichment (AncSZ) was 1.61. The phosphorylation enrichment (Fes) was 1.4, the phosphorylation enrichment (EPHB2) was 0.626 and the phosphorylation enrichment (Hck) was 0.465. It also gave a phosphorylation enrichment (EPHB1) of 0.674, a phosphorylation enrichment (c-Abl (mouse)) of 0.876 and a phosphorylation enrichment (FGFR1) of 0.415. It also gave a phosphorylation enrichment (MERTK) of 0.318.
Work on PLLTDYSPQLQ [OTC_Y345_S340P] yielded an SH2 binding enrichment (Grb2 SH2) of 1, an SH2 binding enrichment (c-Src SH2) of 0.445 and an SH2 binding enrichment (SHP2-C SH2) of 0.656. The phosphorylation enrichment (FGFR3) was 1.19, the phosphorylation enrichment (Fer (mouse)) was 0.879 and the phosphorylation enrichment (c-Src) was 0.616. The phosphorylation enrichment (Jak2) was 0.964, the phosphorylation enrichment (Fyn) was 0.698 and the phosphorylation enrichment (AncSZ) was 1.54. For the same sequence, the phosphorylation enrichment (Fes) was 1.9, the phosphorylation enrichment (EPHB2) was 1.17 and the phosphorylation enrichment (Hck) was 0.951. It also gave a phosphorylation enrichment (EPHB1) of 1.11, a phosphorylation enrichment (c-Abl (mouse)) of 1.02 and a phosphorylation enrichment (FGFR1) of 1.19. For the same sequence, the phosphorylation enrichment (MERTK) was 0.965.
With PPKFFDTRKLL [CYBB_Y41_Y41D] the SH2 binding enrichment (Grb2 SH2) was 1.54, the SH2 binding enrichment (c-Src SH2) was 0.92 and the SH2 binding enrichment (SHP2-C SH2) was 1.17. It also gave a phosphorylation enrichment (FGFR3) of 0.38, a phosphorylation enrichment (Fer (mouse)) of 0.941 and a phosphorylation enrichment (c-Src) of 0.614. It also gave a phosphorylation enrichment (Jak2) of 0.663, a phosphorylation enrichment (Fyn) of 0.518 and a phosphorylation enrichment (AncSZ) of 0.992. For the same sequence, the phosphorylation enrichment (Fes) was 0.639, the phosphorylation enrichment (EPHB2) was 0.556 and the phosphorylation enrichment (Hck) was 0.51. For the same sequence, the phosphorylation enrichment (EPHB1) was 0.383, the phosphorylation enrichment (c-Abl (mouse)) was 0.759 and the phosphorylation enrichment (FGFR1) was 0.365. The phosphorylation enrichment (MERTK) was 0.796.
PPPPAYDDVAQ [TNK2_Y635] gave an SH2 binding enrichment (Grb2 SH2) of 0.757, an SH2 binding enrichment (c-Src SH2) of 4.13 and an SH2 binding enrichment (SHP2-C SH2) of 0.706. For the same sequence, the phosphorylation enrichment (FGFR3) was 0.591, the phosphorylation enrichment (Fer (mouse)) was 0.547 and the phosphorylation enrichment (c-Src) was 0.622. It also gave a phosphorylation enrichment (Jak2) of 1.03, a phosphorylation enrichment (Fyn) of 0.45 and a phosphorylation enrichment (AncSZ) of 1.16. It also gave a phosphorylation enrichment (Fes) of 0.993, a phosphorylation enrichment (EPHB2) of 0.669 and a phosphorylation enrichment (Hck) of 0.439. For the same sequence, the phosphorylation enrichment (EPHB1) was 0.579, the phosphorylation enrichment (c-Abl (mouse)) was 0.806 and the phosphorylation enrichment (FGFR1) was 0.467. For the same sequence, the phosphorylation enrichment (MERTK) was 0.676.
With PRIHSYRGHLW [VHL_Y112_R107P] the SH2 binding enrichment (Grb2 SH2) was 1.55, the SH2 binding enrichment (c-Src SH2) was 1.89 and the SH2 binding enrichment (SHP2-C SH2) was 1.86. It also gave a phosphorylation enrichment (FGFR3) of 0.579, a phosphorylation enrichment (Fer (mouse)) of 0.722 and a phosphorylation enrichment (c-Src) of 0.748. For the same sequence, the phosphorylation enrichment (Jak2) was 0.628, the phosphorylation enrichment (Fyn) was 0.611 and the phosphorylation enrichment (AncSZ) was 1.01. For the same sequence, the phosphorylation enrichment (Fes) was 1.08, the phosphorylation enrichment (EPHB2) was 0.451 and the phosphorylation enrichment (Hck) was 0.713. It also gave a phosphorylation enrichment (EPHB1) of 1.56, a phosphorylation enrichment (c-Abl (mouse)) of 1.09 and a phosphorylation enrichment (FGFR1) of 0.771. It also gave a phosphorylation enrichment (MERTK) of 0.655.
